# B1: anti-NCAP-2 nanobody (VHH, not shown: small tags and cut ends)
# VHH: QVQLVESGGALMQAGGSLRLSCAVSGIRLGYYTIAWFRQAPGKEREGISCISRSEGSTYYADSVKGRFTISTENAENTVYLQMNSLKPDDTAVYYCAVDFVPASHCAVANTKGYDYWGQGTQVTVSS
# notes: also called N Capsid nanobody NCAP-2
# Biological target: T1, SARS-CoV-2 nucleocapsid protein (SARS-CoV-2, UniProt P0DTC9 1-419)
# T1 construct: also called NCAP; N-capsid
binder,measurement,value
B1,binding result,binds

# From patent publication US20250155438A1 (KING ABDULAZIZ UNIVERSITY, published 2025)
